Assay results: paper PMC4335309 (Journal of molecular biology, 2009)

Molecular target: the molecule itself
Experiment: crystal structure

B1: MukB-D (MukB construct 566–863: hinge domain with part of the coiled coil domain) (domain or fragment, Escherichia coli, UniProt P22523 566-863, looked up)
chain: IASLSDSVSNAREERMALRQEQEQLQSRIQSLMQRAPVWLAAQNSLNQLSEQCGEEFTSSQDVTEYLQQLLEREREAIVERDEVGARKNAVDEEIERLSQPGGSEDQRLNALAERFGGVLLSEIYDDVSLEDAPYFSALYGPSRHAIVVPDLSQVTEHLEGLTDCPEDLYLIEGDPQSFDDSVFSVDELEKAVVVKIADRQWRYSRFPEVPLFGRAARESRIESLHAEREVLSERFATLSFDVQKTQRLHQAFSRFIGSHLAVAFESDPEAEIRQLNSRRVELERALSNHENDNQQQR
- binding result: binds
